Among the data in paper PMC2787366 are fold weaker than with the H3K9me3 peptide and Kd values, retold here.

Common to all, as to assay: fluorescence polarisation
For orientation: Fluorescence polarisation rises when a labelled molecule tumbles more slowly, as on binding a larger partner.

Experiment [1] deals with H3 peptide dimethylated on lysine 9 (fluorescence polarization).
In experiment [2] the target is H3K9me3 peptide (fluorescence polarization).
Experiment [3] deals with G9aK185me3 peptide (fluorescence polarization).

B1: hCDYL1b chromodomain (1–78 aa) (domain or fragment)
chain: MASEELYEVERIVDKRKNKKGKTEYLVRWKGYDSEDDTWEPEQHLVNCEEYIHDFNRRHTEKQKESTLTRTNRTSPNN
The term Kd denotes the free concentration of one partner at which half of the binding sites on the other are occupied at equilibrium, for simple one-to-one binding. Read a low Kd as higher affinity. In experiment [1], B1 came in with a fold weaker than with the H3K9me3 peptide of 1.5 fold. Further, the Kd stood at 2 µM in experiment [2] and 8 µM in experiment [3].
